Values of other authors as cited in paper PMC5338744.

Target: VEGFR2 (KDR) (Homo sapiens) (UniProt P35968)
Chain of UniProt P35968 (P35968 20-1356): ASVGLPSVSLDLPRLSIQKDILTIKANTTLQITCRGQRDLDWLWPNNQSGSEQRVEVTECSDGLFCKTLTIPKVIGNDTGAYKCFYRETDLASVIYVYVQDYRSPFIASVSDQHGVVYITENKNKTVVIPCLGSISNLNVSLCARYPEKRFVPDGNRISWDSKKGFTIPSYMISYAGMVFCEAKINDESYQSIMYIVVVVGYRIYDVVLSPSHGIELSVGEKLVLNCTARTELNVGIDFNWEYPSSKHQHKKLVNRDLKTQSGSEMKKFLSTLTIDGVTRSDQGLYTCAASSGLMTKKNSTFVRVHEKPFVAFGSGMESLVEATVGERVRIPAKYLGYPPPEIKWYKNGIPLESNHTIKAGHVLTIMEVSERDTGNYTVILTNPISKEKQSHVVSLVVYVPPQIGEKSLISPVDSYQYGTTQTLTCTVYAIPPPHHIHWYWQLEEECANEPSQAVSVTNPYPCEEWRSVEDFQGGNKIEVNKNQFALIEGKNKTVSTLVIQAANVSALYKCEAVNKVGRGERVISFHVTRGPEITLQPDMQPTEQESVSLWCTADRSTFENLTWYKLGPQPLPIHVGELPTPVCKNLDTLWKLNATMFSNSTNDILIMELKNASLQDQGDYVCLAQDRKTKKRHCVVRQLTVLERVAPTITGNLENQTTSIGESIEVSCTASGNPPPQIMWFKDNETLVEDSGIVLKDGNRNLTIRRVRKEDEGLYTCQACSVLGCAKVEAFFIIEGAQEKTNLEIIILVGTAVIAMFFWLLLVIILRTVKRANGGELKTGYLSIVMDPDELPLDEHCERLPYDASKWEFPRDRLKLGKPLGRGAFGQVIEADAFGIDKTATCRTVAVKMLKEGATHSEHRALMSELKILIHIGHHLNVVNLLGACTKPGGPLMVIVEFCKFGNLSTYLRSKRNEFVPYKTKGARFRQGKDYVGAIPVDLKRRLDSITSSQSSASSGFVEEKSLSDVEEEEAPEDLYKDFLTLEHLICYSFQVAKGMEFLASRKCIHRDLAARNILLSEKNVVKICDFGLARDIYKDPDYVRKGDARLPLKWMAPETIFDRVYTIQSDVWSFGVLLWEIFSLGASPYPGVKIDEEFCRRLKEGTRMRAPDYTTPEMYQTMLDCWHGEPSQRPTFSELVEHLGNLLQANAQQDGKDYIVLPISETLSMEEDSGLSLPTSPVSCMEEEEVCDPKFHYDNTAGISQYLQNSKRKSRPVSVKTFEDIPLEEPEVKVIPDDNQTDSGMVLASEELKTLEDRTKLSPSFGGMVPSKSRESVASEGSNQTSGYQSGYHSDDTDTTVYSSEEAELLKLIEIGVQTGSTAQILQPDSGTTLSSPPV

## VEGF (from UniProt P15692)
  Kd: 0.76 nM
